Test results as given in patent publication US20250025478.

Assays:
[1] = biological target: 6×His-CYLD (UniProt Q9NQC7)
[2] = biological target: GST-SPATA2 (UniProt Q9UM82)
[3] = test system: 3×-FLAG-RNF213

6×His-CYLD, sequence (Q9NQC7 whole entry): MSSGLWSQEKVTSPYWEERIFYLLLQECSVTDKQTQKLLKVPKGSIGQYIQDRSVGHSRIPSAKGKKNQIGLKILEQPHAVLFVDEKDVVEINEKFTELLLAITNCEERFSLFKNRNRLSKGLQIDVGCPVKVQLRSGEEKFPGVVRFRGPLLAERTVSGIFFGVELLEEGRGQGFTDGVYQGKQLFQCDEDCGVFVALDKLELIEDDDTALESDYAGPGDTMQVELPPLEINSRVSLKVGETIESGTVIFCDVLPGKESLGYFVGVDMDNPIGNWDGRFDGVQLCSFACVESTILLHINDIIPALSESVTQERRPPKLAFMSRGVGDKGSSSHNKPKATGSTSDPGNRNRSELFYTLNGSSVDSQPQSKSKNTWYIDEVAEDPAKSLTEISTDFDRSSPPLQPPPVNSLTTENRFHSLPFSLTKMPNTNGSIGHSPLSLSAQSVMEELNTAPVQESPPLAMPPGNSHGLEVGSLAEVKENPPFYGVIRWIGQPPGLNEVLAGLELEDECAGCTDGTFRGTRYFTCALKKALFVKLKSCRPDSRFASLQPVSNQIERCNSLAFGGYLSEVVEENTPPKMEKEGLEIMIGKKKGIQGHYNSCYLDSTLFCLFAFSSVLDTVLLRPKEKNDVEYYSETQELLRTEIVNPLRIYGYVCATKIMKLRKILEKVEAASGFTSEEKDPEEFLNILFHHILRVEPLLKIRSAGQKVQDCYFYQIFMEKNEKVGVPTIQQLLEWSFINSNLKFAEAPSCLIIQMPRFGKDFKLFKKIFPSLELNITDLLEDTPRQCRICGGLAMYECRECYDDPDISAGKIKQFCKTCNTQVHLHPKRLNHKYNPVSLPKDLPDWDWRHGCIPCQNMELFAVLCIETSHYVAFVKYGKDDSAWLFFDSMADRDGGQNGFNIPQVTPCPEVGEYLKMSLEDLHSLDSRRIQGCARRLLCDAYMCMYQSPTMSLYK
GST-SPATA2, sequence (Q9UM82 whole entry): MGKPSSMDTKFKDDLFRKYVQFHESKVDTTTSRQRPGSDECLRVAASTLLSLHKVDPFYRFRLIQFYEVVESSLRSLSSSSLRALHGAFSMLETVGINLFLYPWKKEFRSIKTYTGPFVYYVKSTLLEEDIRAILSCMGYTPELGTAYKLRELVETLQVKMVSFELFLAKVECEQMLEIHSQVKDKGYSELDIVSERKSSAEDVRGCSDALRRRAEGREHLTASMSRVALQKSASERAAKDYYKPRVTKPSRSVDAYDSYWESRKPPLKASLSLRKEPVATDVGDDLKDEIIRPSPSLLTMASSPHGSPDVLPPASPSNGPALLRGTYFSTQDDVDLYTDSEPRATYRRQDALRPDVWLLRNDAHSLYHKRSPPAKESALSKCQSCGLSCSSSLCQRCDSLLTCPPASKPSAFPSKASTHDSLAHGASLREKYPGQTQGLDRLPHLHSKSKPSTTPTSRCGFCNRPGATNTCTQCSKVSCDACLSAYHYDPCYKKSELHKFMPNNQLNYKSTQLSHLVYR

Row | Substance | in vitro ubiquitylation assay (UBE1, UBE2L3, HA-Ub) [1] | in vitro ubiquitylation assay (UBE1, UBE2L3, HA-Ub) [2] | in vitro dephosphorylation of ABL1-phosphorylated RNF213 [3]
1 | 3×-FLAG-RNF213 | SPATA2 and CYLD, when tested alone or in equimolar concentrations, were ubiquitinated by 3×FLAG-RNF213 | SPATA2 and CYLD, when tested alone or in equimolar concentrations, were ubiquitinated by 3×FLAG-RNF213 | –
2 | 3×-FLAG-RNF213^H4014A | both proteins showed increased ubiquitylation when the RING mutant RNF213^H4014A (RING-dead) was assayed (compared with WT RNF213) | both proteins showed increased ubiquitylation when the RING mutant RNF213^H4014A (RING-dead) was assayed (compared with WT RNF213) | –
3 | 3×-FLAG-RNF213^H4014A/H4509A | RING/RZ-dead was unable to ubiquitylate CYLD/SPATA2 | RING/RZ-dead was unable to ubiquitylate CYLD/SPATA2 | –
4 | 3×-FLAG-RNF213^H4509A | There was no significant ubiquitylation of CYLD or SPATA2 when an RZ mutant ("RZ-dead") form of RNF213 (RNF213^H4509A) was tested | There was no significant ubiquitylation of CYLD or SPATA2 when an RZ mutant ("RZ-dead") form of RNF213 (RNF213^H4509A) was tested | –
5 | recombinant GST-PTP1B | – | – | GST-PTP1B dephosphorylated ABL1-phosphorylated RNF213
